In patent US20220332804A1 (CSL INNOVATION, published 2022) one finds Kd data, which are given here for 1 molecule.

What all share (assay): SPR, mAb captured, C2 mutant analyte;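 also: Anti-C2 mAbs captured on goat anti-human IgG Biacore CM5 chips, alanine or serine C2 surface mutants flowed over at 37 °C, double-referenced sensorgrams fitted to a 1:1 binding model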
In assay [1] the target is T1, human C2 N403A (human, UniProt P06681 21-752).
T1 sequence: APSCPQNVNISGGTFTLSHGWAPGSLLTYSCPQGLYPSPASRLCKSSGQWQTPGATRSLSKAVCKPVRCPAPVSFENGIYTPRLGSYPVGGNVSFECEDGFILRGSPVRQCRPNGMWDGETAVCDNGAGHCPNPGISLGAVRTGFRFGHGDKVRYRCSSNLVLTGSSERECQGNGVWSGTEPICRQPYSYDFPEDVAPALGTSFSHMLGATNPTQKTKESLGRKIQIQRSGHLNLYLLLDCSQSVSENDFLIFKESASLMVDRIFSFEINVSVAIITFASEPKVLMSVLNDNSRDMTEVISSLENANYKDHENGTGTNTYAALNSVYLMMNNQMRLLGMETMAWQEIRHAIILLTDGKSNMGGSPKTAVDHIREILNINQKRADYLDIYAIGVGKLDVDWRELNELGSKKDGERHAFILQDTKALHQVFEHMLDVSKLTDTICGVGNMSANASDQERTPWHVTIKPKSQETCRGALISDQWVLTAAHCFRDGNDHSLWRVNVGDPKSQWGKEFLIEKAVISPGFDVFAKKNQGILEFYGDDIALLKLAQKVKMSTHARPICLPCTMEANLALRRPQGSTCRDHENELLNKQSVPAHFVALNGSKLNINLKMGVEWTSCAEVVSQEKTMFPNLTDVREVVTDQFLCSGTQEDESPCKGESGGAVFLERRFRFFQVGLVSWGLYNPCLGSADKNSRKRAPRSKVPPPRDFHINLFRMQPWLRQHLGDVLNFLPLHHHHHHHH

In assay [2] the target is T2, human C2 N424A (human, UniProt P06681 21-752).
T2 sequence: T1 sequence with A383N, N404A

Assay [3] deals with T3, human C2 D431A (human, UniProt P06681 21-752).
T3 sequence: T1 sequence with A383N, D411A

The target in assay [4] is T4, human C2 D269A (human, UniProt P06681 21-752).
T4 sequence: T1 sequence with D249A, A383N

Changes are numbered by the printed parent chain.

B1: RF16-214 (antibody, V domains shown)
VH: EVQLLESGGGLVQPGGSLRLSCAASGFTFSWYQMMWVRQAPGKGLEWVSRIYPSGGGTAYADSVKGRFTISRDNSKNTLYLQMNSLRAEDTAVYYCARDAGYGDNWGQGTLVTVSS
VL: QSALTQPPSVSVSPGQTASITCSGDKLGEKYASWYQQKAGQSPVMVIYQDRKRPSGIPERFSGSNSGNTATLTISGTQAMDEADYYCQAWDTRAVVFGGGTKLTVLG
For the molecule B1, the Kd in assay [1] was determined as 29.6 nM; in assay [2], 16.1 nM; in assay [3], 71.8 nM; in assay [4] it was 17.2 nM.
